This assay has as its target full length human CNTFR (hCNTFR, amino acids 1-372, UniProtKB/Swiss-Prot Accession #P26992) (human) (UniProt P26992). The experiment in a line: cell-based or functional assay.

Sequence of full length human CNTFR (P26992 23-342 limits assumed, one chain of several): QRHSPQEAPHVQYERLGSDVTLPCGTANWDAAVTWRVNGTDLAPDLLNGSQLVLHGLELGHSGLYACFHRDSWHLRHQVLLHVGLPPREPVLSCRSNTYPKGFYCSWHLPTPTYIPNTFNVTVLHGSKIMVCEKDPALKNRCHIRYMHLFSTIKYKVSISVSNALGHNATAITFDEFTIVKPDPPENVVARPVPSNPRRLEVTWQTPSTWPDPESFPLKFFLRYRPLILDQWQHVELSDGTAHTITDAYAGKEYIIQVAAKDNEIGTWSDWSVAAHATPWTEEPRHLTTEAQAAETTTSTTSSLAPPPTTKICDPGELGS

In turn, “human Ciliary Neurotrophic Factor (hCNTF, R&D Systems, 257-NT) (from UniProt P26441 2-200) (ligand)” yielded a Ligand EC50 [M], activation of IMR-32/STAT3-luc cells (luciferase) of 2.26e-12 M.
“human Cytokine-like Factor 1/human Cardiotrophin-like cytokine complex (hCLF-1/CLC, R&D Systems 1151-CL) (from UniProt O75462 38-422; Q9UBD9 28-225) (ligand)” returned a Ligand EC50 [M], activation of IMR-32/STAT3-luc cells (luciferase) of 9.63e-11 M.

The values are drawn from patent publication US20260201045A1.
